Results as given in patent US20230295635, “DNA APTAMERS FOR EOSINOPHIL PEROXIDASE DETECTION” (McMaster University, published 2023).

Key:
[1] = target: T1, Eosinophil peroxidase (EPX) (UniProt P11678;P11678 P11678:140-250,P11678:251-715); assay: FP; 0.5x SB, room temperature; settings: tags: Cedarlane #342-60-0.1; untagged commercial protein; label: 5'-FAM; 3' stem loop
[2] = target: T1, Eosinophil peroxidase (EPX); assay: FP; PBS pH 7.4, room temperature; settings: tags: Cedarlane #342-60-0.1, untagged commercial protein, label: 5'-FAM
[3] = target: T1, Eosinophil peroxidase (EPX); assay: EMSA; 1x SB (50 mM Tris, 1 M NaCl, 5 mM MgCl2, 2 mM KCl, pH 9), poly(dI-dC); from loss of free aptamer band; settings: tags: Cedarlane #342-60-0.1; untagged commercial protein; label: 5'-FAM; 3' stem loop
[4] = target: T1, Eosinophil peroxidase (EPX); assay: EMSA; value only in figure; weaker than EAP1-05; 1x SB pH 9; settings: tags: Cedarlane #342-60-0.1; untagged commercial protein; label: fluorescent (FAM)
[5] = target: T1, Eosinophil peroxidase (EPX); assay: EMSA; 3 nM aptamer, 5 nM EPX; small positive impact of middle deletion; settings: tags: Cedarlane #342-60-0.1; untagged commercial protein; label: 5'-FAM
Procedure: Next, EAP1-05 was subjected to truncation and deletion experiments to shorten the aptamer and improve its binding ability. The aptamer was truncated by removing various DNA segments (FIG. 2A), and the fraction of aptamer bound to EPX was assessed by EMSA using 3 nM of aptamer and a single EPX concentration of 5 nM and calculating the decrease in free aptamer fluorescence in EMSA gels.

[6] = target: T1, Eosinophil peroxidase (EPX); assay: pulldown; HB (50 mM HEPES, 300 mM NaCl, 15 mM MgCl2, pH 7.5), TMB signal; LoD 1 nM in buffer, 1.25 nM in sputum; settings: tags: Cedarlane #342-60-0.1; untagged commercial protein; label: 5'-biotin
Procedure: (§1) EPX pulldown assay: Biotinylated EAP1-05T3 was immobilized on streptavidin-coated agarose beads as follows: 200 µL of streptavidin-coated agarose slurry was transferred into a 1.5 mL Eppendorf tube and washed with 500 µL of 1x HB (50 mM HEPES, 300 mM NaCl, 15 mM MgCl2, 0.01% Tween20, pH 7.5). 1 nmole of biotinylated EAP1-05T3 was added to this slurry and rotated gently for 1 h to bind the aptamers with the beads. The beads were washed 5x with 500 µL of 1x HB each time and finally suspended in 1000 µL of 1x HB and stored at 4° C. until use. 50 µL of this bead slurry was used for each pull-down experiment.
Sensitivity test in buffer: EPX stocks of different concentrations (10.0, 5.0, 2.5, 1.25, 0.625, 0.312, 0.156, 0.078, 0.039 and 0.019 µM) were made in 1x HB. Similar to specificity test, 50 µL of aptamer conjugated beads slurry was transferred in each fresh Eppendorf tube (3 tubes for each concentration for triplicate experiments). 1.0 µL of each protein was added to their respected tube and incubated at room temperature for 30 minutes with occasional pipetting for homogeneous binding. Only buffer was added in the control experiment tube that was labelled as buffer. […] This yellow solution was immediately transferred into 96 well plate and the OD was measured at 450 nm using a Tecan plate reader. […]

[7] = target: Bovine serum albumin (BSA) (Bos taurus, UniProt P02769 P02769:25-607); assay: pulldown; HB; no TMB signal (BSA has no peroxidase activity); settings: label: 5'-biotin
Procedure: as §1
Specificity test: 50 µL of aptamer-conjugated beads from above were aliquoted in each tube and labelled for each experiment: Buffer, EPX, MPO, LPO, TPO and BSA respectively. 1 µM stock of each of protein was made in 1x HB. Next, 1.0 µL of each protein was added to their respected tube and incubated at room temperature for 30 minutes with occasional pipetting for homogeneous binding. Only buffer was added in the control experiment tube that was labelled as buffer. Then the beads were sedimented by brief centrifugation using a benchtop centrifuge and washed 3× using 300 µL 1x HB. Next, the beads were resuspended in 25 µL HB. […] This yellow solution was immediately transferred into 96 well plate and the OD was measured at 450 nm using Tecan plate reader. […]

[8] = target: Myeloperoxidase (MPO) (UniProt P05164;P05164 P05164:165-273,P05164:279-745); assay: pulldown; HB, 1 uM protein; no TMB signal; settings: tags: Cedarlane #426-10-0.1; untagged commercial protein; chain copies: 2; label: 5'-biotin
[9] = target: Lactoperoxidase (LPO) (UniProt P80025 P80025:101-712); assay: pulldown; HB, 1 uM protein; no TMB signal

T1 sequence (P11678 140-250, chain 1 of 2): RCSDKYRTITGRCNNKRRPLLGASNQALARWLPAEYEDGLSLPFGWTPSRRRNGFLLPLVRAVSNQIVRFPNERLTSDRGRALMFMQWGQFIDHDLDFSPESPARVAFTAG
T1 sequence (P11678 251-715, chain 2 of 2): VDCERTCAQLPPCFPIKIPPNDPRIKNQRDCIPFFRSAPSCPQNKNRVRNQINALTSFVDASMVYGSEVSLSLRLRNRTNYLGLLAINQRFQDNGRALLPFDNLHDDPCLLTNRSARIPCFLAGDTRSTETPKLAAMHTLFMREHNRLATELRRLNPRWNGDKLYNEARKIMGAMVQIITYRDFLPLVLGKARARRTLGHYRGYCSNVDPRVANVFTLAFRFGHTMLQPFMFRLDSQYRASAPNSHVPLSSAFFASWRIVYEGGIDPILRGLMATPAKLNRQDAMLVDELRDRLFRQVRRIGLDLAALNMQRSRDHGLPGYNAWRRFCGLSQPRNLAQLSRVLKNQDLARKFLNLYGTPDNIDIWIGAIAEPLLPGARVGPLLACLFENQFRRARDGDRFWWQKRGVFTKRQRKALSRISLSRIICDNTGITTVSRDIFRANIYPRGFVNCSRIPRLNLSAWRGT
Chain of Myeloperoxidase (MPO) (P05164 165-273, chain 1 of 2): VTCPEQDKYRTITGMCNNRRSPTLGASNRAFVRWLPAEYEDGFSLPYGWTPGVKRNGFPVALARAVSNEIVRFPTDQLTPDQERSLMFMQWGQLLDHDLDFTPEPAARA
Chain of Myeloperoxidase (MPO) (P05164 279-745, chain 2 of 2): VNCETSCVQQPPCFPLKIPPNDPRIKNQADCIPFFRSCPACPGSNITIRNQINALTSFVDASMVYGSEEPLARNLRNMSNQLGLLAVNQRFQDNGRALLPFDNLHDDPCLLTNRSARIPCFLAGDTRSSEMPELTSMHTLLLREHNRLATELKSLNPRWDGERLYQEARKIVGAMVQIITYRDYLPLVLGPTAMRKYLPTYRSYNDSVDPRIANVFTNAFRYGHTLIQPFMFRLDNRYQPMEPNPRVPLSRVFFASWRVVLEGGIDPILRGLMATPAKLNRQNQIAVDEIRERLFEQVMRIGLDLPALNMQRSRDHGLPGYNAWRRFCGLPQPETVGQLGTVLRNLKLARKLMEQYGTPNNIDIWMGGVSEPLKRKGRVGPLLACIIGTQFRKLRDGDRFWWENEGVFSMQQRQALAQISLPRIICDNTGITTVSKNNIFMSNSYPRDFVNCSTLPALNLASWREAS
Chain of Bovine serum albumin (BSA) (P02769 25-607, one chain of several): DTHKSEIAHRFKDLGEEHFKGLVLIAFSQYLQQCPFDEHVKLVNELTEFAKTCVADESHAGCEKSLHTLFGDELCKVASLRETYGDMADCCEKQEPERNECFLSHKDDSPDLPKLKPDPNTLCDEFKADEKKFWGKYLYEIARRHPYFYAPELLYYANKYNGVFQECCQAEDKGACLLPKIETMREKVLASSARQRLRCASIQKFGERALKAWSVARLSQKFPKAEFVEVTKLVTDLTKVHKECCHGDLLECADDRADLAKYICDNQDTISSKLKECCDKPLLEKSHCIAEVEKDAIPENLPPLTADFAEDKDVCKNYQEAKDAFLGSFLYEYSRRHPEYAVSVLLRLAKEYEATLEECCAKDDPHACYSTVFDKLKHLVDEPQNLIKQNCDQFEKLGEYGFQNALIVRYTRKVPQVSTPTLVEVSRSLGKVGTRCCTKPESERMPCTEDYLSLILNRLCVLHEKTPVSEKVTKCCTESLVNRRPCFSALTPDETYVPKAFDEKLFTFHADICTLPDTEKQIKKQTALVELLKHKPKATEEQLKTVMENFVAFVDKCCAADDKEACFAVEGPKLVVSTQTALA

Row | Binder | binding result [4] | also measured
1 | EAP1-05 (ssDNA) DNA: ATGCCATCCTACCAACCAGGGGGACAGTGCAAAGGGGTAGGGAGGGGGCTAGGGGGGAGCTCTGAACTGG | – | Kd [1]: 36.6 nM; Kd ([2]; 3' stem loop): 4.3 nM; Kd [3]: 9.2 nM
2 | ATGCCATCCTACCAACCAGGGGGACAGTGCAAAGGGAGCTCTGAACTCG (ssDNA) [EAP1-05T3] | – | Kd [2]: 4.8 nM
3 | EAP2-10 (ssDNA) DNA: ATGCCATCCTACCAACAGGGAGGGGGCGGTTAGGGAATGGTGGTCCGGGCGGGGTAGAGCTCTGAACTGG | binds | –
4 | EAP2-18 (ssDNA) DNA: ATGCCATCCTACCAACATGGGGATATCCGGCGGGGGCATCAGGGGGGAGTGCGGGTGAGCTCTGAACTGG | binds | –
5 | EAP2-40 (ssDNA) DNA: ATGCCATCCTACCAACCAGGGGGCGCGGGAGGGGGCCTGACGTCGAGGGGGTTGGGGAGCTCTGAACTGG | binds | –
6 | ATGCCATCCTACCAATAGGGAGGGGGCTAGGGGGGAGCTCTGAACTCG (ssDNA) [EAP1-05T2] | – | binding result [5]: binds
7 | EAP1-05T3BT (ssDNA) DNA: TTTTTTTTTTATGCCATCCTACCAACCAGGGGGACAGTGCAAAGGGAGCTCTGAACTCG | – | binding result [6]: binds; binding result [7]: no binding; binding result [8]: no binding; binding result [9]: no binding
8 | EAP1-01 (ssDNA) DNA: ATGCCATCCTACCAACCACGGGGATCGGGTGGGGGCTAGGCGGCGTGTGCACGGGGGAGCTCTGAACTGG | binds | –
9 | EAP1-08 (ssDNA) DNA: ATGCCATCCTACCAACCAGTTGCCGGTGGGGTGACCCGGTGGGGGAGGGTGTGGGGGAGCTCTGAACTGG | binds | –
10 | EAP1-15 (ssDNA) DNA: ATGCCATCCTACCAACCGGGGGAGCAAGGTGTAGGGGTAGGGGGCCATGCGAGGGGGAGCTCTGAACTGG | binds | –
11 | EAP1-20 (ssDNA) DNA: ATGCCATCCTACCAACAGCAGCGGGCGGGGGCCAGTGGGGGATGTAGCCGGGGGTGGAGCTCTGAACTGG | binds | –
12 | EAP2-01 (ssDNA) DNA: ATGCCATCCTACCAACCGCGGGAGGAGACTGGTGTAGGGGGCATGGGATGGCCTGGGAGCTCTGAACTGG | binds | –
13 | EAP2-09 (ssDNA) DNA: ATGCCATCCTACCAACACGACCGGTGTAGAGGGGGGTATACGGAATGGGGGTTGTGGAGCTCTGAACTGG | binds | –
